The values that follow come from the supplement of paper PMC12042874.

The data set is described as follows: amyloid nucleation score (Sup35N fusion, yeast selection) (log enrichment); library NNK3; higher = more nucleation; inactive = no reads after selection. The method in brief:
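Sup35N was fused to peptides of 20 random codons and expressed in psi-negative yeast, which were induced with 100 μM copper sulfate for 24 hours and then grown on medium lacking adenine and uracil for 7 days at 30°C. Plasmid inserts from input and output were sequenced on Illumina. The nucleation score is the DiMSum log enrichment of output over input reads, centred on the mode score of non-aggregating sequences. Sequences with under 100 input reads were left out, and random libraries had three technical output replicates.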

± gives the uncertainty stated by the source.

Regarding SRFVYSSGY, the amyloid nucleation score result is “inactive”. Then RDCCYLTFALVPSHGLLKVK, with “inactive”. For the substance SVGLDRTSQEHSAYVGNVHS, the amyloid nucleation score entry is “inactive”. The result for DYGMLCSLLSGDISNSEVGI reads “inactive”.

In the case of SYNRAA, the amyloid nucleation score entry was “inactive”. Take GFCKIAAMGFAYHDGAFDGF: the amyloid nucleation score result is “inactive”. Then RRFRSLKRPAQNLSDALMSG, with “inactive”; and CNVNTLIFGRESNSSEHKHW, with 1.83 ± 0.081.

Take SLMDGFLPNSGEFRIKYAVL: the amyloid nucleation score entry is “inactive”. Then LSLAS, with “inactive”; and SWYRVNYTLPC, with “inactive”; and VSVVNYKVVHSSAEKVFSFS, with “inactive”. Then IGGRTDNSELTCTRGMRFLC, with “inactive”; and YWTANTDYTNVIGYKNTYVH, with -0.337 ± 0.33; and KDLCPFARPASRLHRVACME, with “inactive”.

On to NCGRNRNPPTESCPEVGPRL, for which the amyloid nucleation score entry is “inactive”. The result for SRYRAEIDARYNFLRGFNAC reads -0.449 ± 0.8; that for VWPFPRFRILVKYSFFLGIW, -0.232 ± 0.48; that for MIVHWMVHSRLVHKAVVGDG, “inactive”. Then TLQHLGYVSNIWGVVTAAGS, with “inactive”; and NCLGPWPCLTTILYLRSLEF, with “inactive”; and GSCRGVRWASRE, with “inactive”. As for LAMPTLLQASVTNLVGDSIV, the amyloid nucleation score was -0.265 ± 0.39. Then SNTYCVPYRKGEELVYCGSW, with “inactive”; and FSFPMEIWKGFVYRTA, with 3.16 ± 0.081. The result for RLCWLNVDHGLLVNPPWGYR reads “inactive”; that for CVFKTNVNGLMEEVLSGFKY, “inactive”.

Regarding SESLMYRAKRVSTHYNFMCL, the amyloid nucleation score result was “inactive”.

With IALVMSIDVAVVLMYPSPQW, the amyloid nucleation score is 0.381 ± 0.24.

Regarding TVGGEIVNSLGVWCYRVCKR, the amyloid nucleation score came out at 0.723 ± 0.26. Then EKFMPHTELLNVWGLRQILM, with “inactive”; and REVPT, with “inactive”. Then CHSRTDKNSFC, with “inactive”. Then NLNWGTLSTRFYCVEDS, with “inactive”; and TDVSHGNLHGVSSWSGVPAD, with “inactive”.

In the case of MSGEFVV, the amyloid nucleation score entry was “inactive”.

Regarding LGSIRSSKCKNLVICIGPMC, the amyloid nucleation score turned out to be 2.41 ± 0.051. Consider KKLHALESCA, for which the amyloid nucleation score result is “inactive”.

In turn, CFIMLWCTISFIILVSLVTD displayed an amyloid nucleation score of 0.671 ± 0.3. Then AWYSDCRCVKPHVGRGNWCM, with “inactive”; and VKYDDSWYDDWHIYNVYRCK, with “inactive”. On to GYFSLPIGGVVRTGVMLDE, for which the amyloid nucleation score entry was “inactive”. For the substance YDGIKSGFECLESGRKCKTA, the amyloid nucleation score result is “inactive”.

Consider ESLATNQVDMFSLSVRIFGP, for which the amyloid nucleation score entry was “inactive”.

Turning to PECFVTGIRGTSCCRESVD, the amyloid nucleation score result is “inactive”. The result for FEYLSMYELGISVMSTAH reads “inactive”; that for TTSNMGVVHYL, “inactive”.

On to TWCGFWTLMERVYHRRWTSL, for which the amyloid nucleation score result was “inactive”. The result for VVTEVSSLSSTGGSFVWLCR reads “inactive”; that for MFINECVSVYDQF, “inactive”. The result for MLRDFFQ reads “inactive”; that for LSFIISCNYTINNNMWV, 2.91 ± 0.077. The result for LDSADTNDHPFSWYNGMLGT reads “inactive”; that for LYCTWNSYNSVYAI, 0.66 ± 0.2. The substance PMQTSNLNYCVCYCCAVRTF displayed an amyloid nucleation score of 0.88 ± 0.34. IKKHCV: the amyloid nucleation score entry is “inactive”. Regarding TVEQYWRNEREWF, the amyloid nucleation score entry is “inactive”. Then FFERSR, with “inactive”; and CSTISVTLALV, with “inactive”. The result for FTFNSWSSWWNTSSFLIKGQ reads “inactive”. The result for LFFCHYILY reads 1.58 ± 0.087; that for TDRVCTPSVSDILVRWNNSQ, “inactive”. On to IVNRIVVSSRRFSLVHWGWA, for which the amyloid nucleation score stood at 1.73 ± 0.11. The result for ITLLCLFNATL reads 1.98 ± 0.085. The result for YSGDSWYVLYVGNPPGDYWR reads 1.66 ± 0.09; that for IVGDGDGQTCCVSRSLCGMV, “inactive”; that for MVKSKSTLTCNSIEPCIVIF, “inactive”.

With IYTARIVTFCTFFRRY, the amyloid nucleation score entry is “inactive”. Then RVFSTFILYGETKFFLVPET, with 0.677 ± 0.23; and HTWTWDIII, with 0.065 ± 0.23.

Turning to YNDDKYCFDMNCMSPRYRGD, the amyloid nucleation score was -0.191 ± 0.4. The result for LHYICQKLGGMWMVLVCRAC reads “inactive”. Then LGTWFWVVVG, with “inactive”; and TRTHPDVNRAKMDVKGDAKI, with “inactive”; and TQDGELV, with “inactive”.

For PDLIDVFGE, the amyloid nucleation score result is “inactive”. DLSMGNCEVVGLESSTTICK: the amyloid nucleation score result was “inactive”. The result for MVSMNSAAFLFRCHYCLGVR reads “inactive”; that for RGTSSQ, “inactive”; that for HLVYWVIHDLYMTI, 0.303 ± 0.33. Then QGMALPLTTGGGVNKRTCYG, with “inactive”. The result for GHKVSSIDNHFPILSSEAFK reads “inactive”. With VGSITVRLWYILECGEEVDC, the amyloid nucleation score entry is “inactive”. As for MFEYLWEENMSLIYSKVDCG, the amyloid nucleation score entry is “inactive”. Consider DHLSVWVSRLDTINCLREVG, for which the amyloid nucleation score entry is “inactive”. The result for SILKDS reads “inactive”; that for RWYWDHVRIDTYVVHSRTWR, 0.979 ± 0.13; that for HGSAWHSISEVVTIIRACGF, “inactive”. Then LLFQL, with “inactive”; and PFCVGIQFDSEKPLVYFNLL, with “inactive”; and SWEFPTDKSYMSCREPENPM, with “inactive”.

Turning to ARRNYHRAINFGGSCAIINK, the amyloid nucleation score result is “inactive”. Then SVHRLFISCKVWGFKVLWPV, with “inactive”; and NMFPGSISLEWWGGTQLRWE, with 0.909 ± 0.23; and HHIMIATLSG, with 0.711 ± 0.12.

HMKPSMLYITVCRWFKFY: the amyloid nucleation score entry is “inactive”. Then VEATSTRGDTAPVPERGMLG, with -1.01 ± 1.7. As to KMSAPWEGQCECCGCDF, the amyloid nucleation score entry was “inactive”. Take SIQKSWDASGSLIYS: the amyloid nucleation score entry was “inactive”.

Take EVGCV: the amyloid nucleation score came out at 0.76 ± 0.14. Consider FNIHSQIAFLFLCGYLESTV, for which the amyloid nucleation score came out at 1.94 ± 0.075.

Take EYLLSSMRLSVILSAWYARC: the amyloid nucleation score entry was “inactive”. The result for ERQVYMVLGSICRKPTMERS reads -1.05 ± 1.9; that for MILSNISGSRLIGSSNHSAF, “inactive”; that for SGMVCVSLVG, “inactive”. The result for SVVLIMKICTVEGYDPQLLF reads “inactive”. The result for LGNISCELARIELHAPAIR reads “inactive”.

For the substance IGSSRIDFSSRNYGV, the amyloid nucleation score was 0.576 ± 0.12. In turn, IQQGKVYKGTLLLTAYMTSE came in with an amyloid nucleation score of 1.11 ± 0.096.

Take VSVLRWLKRLDLHCGGV: the amyloid nucleation score result is “inactive”.

In turn, FSSQYMSCIVRRHGGNLDAC gave an amyloid nucleation score of 0.033 ± 0.39. Then YTGYWTGLYYVFMEINGWGS, with “inactive”. With VLPNYPSFNSSYICWYFWYL, the amyloid nucleation score result was “inactive”. Then VFVVQNGMPTRFECVLGVQR, with “inactive”; and YVCSDSMLEARVREGTEYRS, with -0.259 ± 0.98. Take RRVFHWYKYCV: the amyloid nucleation score result is “inactive”. Take VKKLSKVHDSCGMREVLGCH: the amyloid nucleation score is -0.36 ± 1.1. On to PHCPELEQQVKCGTS, for which the amyloid nucleation score is 0.178 ± 0.26. Turning to LNLGILACSGKRLSQSCRLT, the amyloid nucleation score entry was “inactive”.

With AGLPLV, the amyloid nucleation score result is “inactive”.

For VLLVCFLRTRKCSRLLAC, the amyloid nucleation score result is “inactive”. Regarding ICLYLRQVKLIAGAERKKVQ, the amyloid nucleation score result is “inactive”.

As to GCDILQFRHCF, the amyloid nucleation score result was “inactive”. In the case of LLNTRGSRVMLLGHRLFDN, the amyloid nucleation score entry was “inactive”. For WRVADTTEARMTGWGVWQWY, the amyloid nucleation score entry is “inactive”. The result for KALGAEYNTHGTVSGCSLCK reads “inactive”; that for RFATGCDYLLRRW, “inactive”. Then EGSEGSDMSRTFFYICYFIL, with “inactive”; and LDHRGIRFFN, with “inactive”; and ELSANTSFTNSHMTMTTKLF, with “inactive”. Then SQVGMSPYRSCSINKWCPGI, with “inactive”.
